Earlier results on one substance are cited in paper PMC5764468.

The target in this data set is calmodulin (Homo sapiens) (UniProt P0DP23).

The term Kd denotes the concentration at which binding is half-saturated. As to CyaA AC domain AC (from UniProt P0DKX7), the dissociation constant (Kd) is less than 0.1 nM.
